Assay results from paper PMC5434802.

Legend:
Assay in all cases: EMSA
Settings in all cases: EMSA conditions not in material; end-labelled fragments pre-incubated with Fis and/or FNR before RNA polymerase
[1] = target: Fis;FNR D154A D154A (Escherichia coli K-12?;Escherichia coli K-12?) (UniProt P0A6R3+P0A9E5)
[2] = target: RNA polymerase (Escherichia coli) (UniProt P0A7Z4+P0A8V2+P0A8T7+P0A800+P00579)
[3] = target: FNR D154A;RNA polymerase D154A (Escherichia coli K-12?;Escherichia coli) (UniProt P0A9E5+P0A7Z4+P0A8V2+P0A8T7+P0A800+P00579)
[4] = target: Fis;FNR D154A;RNA polymerase D154A (Escherichia coli K-12?;Escherichia coli K-12?;Escherichia coli) (UniProt P0A6R3+P0A9E5+P0A7Z4+P0A8V2+P0A8T7+P0A800+P00579)
[5] = target: T1, Fis (Escherichia coli K-12?) (UniProt P0A6R3)
T1 sequence: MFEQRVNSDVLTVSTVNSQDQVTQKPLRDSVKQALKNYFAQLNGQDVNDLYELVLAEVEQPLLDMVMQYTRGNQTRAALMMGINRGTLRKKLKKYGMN

[6] = target: T2, FNR D154A D154A (Escherichia coli K-12?) (UniProt P0A9E5)
T2 sequence: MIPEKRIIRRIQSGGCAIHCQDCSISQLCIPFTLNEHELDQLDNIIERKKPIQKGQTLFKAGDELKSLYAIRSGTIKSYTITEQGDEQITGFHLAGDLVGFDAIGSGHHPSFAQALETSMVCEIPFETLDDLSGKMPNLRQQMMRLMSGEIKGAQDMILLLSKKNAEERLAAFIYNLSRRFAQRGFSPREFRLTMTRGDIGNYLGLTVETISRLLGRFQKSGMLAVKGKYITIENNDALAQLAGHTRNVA

| Sequence | binding [1] | binding [2] | binding [3] | binding [4] | binding [5] | binding [6] |
| --- | --- | --- | --- | --- | --- | --- |
| AGCTTACATTGCTCGCCCCTATGTGTAACAAATAACCACACTGTGAATGTTGTCTTTAATCAATTGTAAGTGCATGTAAAATACCACTTTAGAGTTAGTCAGG / AATTCCTGACTAACTCTAAAGTGGTATTTTACATGCACTTACAATTGATTAAAGACAACATTCACAGTGTGGTTATTTGTTACACATAGGGGCGAGCAATGTA [pnrf97 E. coli K-12] | binds | binds | binds more weakly | binds more weakly | binds | binds |
| AATTCCTGACTAACTCTAAAGTGGTATTTTACATGCACTTACAATTGATTAAAGACAACATTCACAGTGTGGTTATTTGTTACACTTAGGGGCGAGCAATGTA / AGCTTACATTGCTCGCCCCTAAGTGTAACAAATAACCACACTGTGAATGTTGTCTTTAATCAATTGTAAGTGCATGTAAAATACCACTTTAGAGTTAGTCAGG [pnrf97 EHEC] | binds | – | – | – | binds | binds |
